{"source": "the DeepSol protein solubility set", "data": [{"experiment": "soluble on expression in E. coli; label from the status in PepcDB or PDB records", "values": [{"sequence": "MASKDKEINNTIDAIEDKNFKQVYKDSSYISKSDNGEVEMTERPIKIYNSLGVKDINIQDRKIKKVSKNKKRVDAQYKIKTNYGNIDRNVQFNFVKEDGMWKLDWDHSVIIPGMQKDQSIHIENLKSERGKILDRNNVELANTGTAYEIGIVPKNVSKKDYKAIAKELSISEDYIKQQMDQNWVQDDTFVPLKTVKKMDEYLSDFAKKFHLTTNETESRNYPLEKATSHLLGYVGPINSEELKQKEYKGYKDDAVIGKKGLEKLYDKKLQHEDGYRVTIVDDNSNTIAHTLIEKKKKDGKDIQLTIDAKVQKSIYNNMKNDYGSGTAIHPQTGELLALVSTPSYDVYPFMYGMSNEEYNKLTEDKKEPLLNKFQITTSPGSTQKILTAMIGLNNKTLDDKTSYKIDGKGWQKDKSWGGYNVTRYEVVNGNIDLKQAIESSDNIFFARVALELGSKKFEKGMKKLGVGEDIPSDYPFYNAQISNKNLDNEILLADSGYGQGEILINPVQILSIYSALENNGNINAPHLLKDTKNKVWKKNIISKENINLLTDGMQQVVNKTHKEDIYRSYANLIGKSGTAELKMKQGETGRQIGWFISYDKDNPNMMMAINVKDVQDKGMASYNAKISGKVYDELYENGNKKYDIDE", "soluble on expression in E. coli": "soluble"}, {"sequence": "MSLKYNNCVIGSRSVFPPRGLQETNIGIVHISDINHYYTLNLSRKIENHLSKLTGAGTGDSVEDSMFLATMEAYERLANSIPVSQQVIASQEELGDLAVPLSDFPKMNQSETSSNGIEKKYLRWSESYNLTDQSRCYIPQVYINLYTHFNYNGEGLTHPISTGCAIHQDYTRAVINGIYEVIERDGIALFWLLKRPLKKLDKQEFIDDLEIFSSPFLGKTTLYDASTINGVYTFCLRAETHFSESIRNVVMFSSNTCPKEAISKLKKELISVIYSLANGIEKQSNLLKQDPMSFYHVDEGALYMAHPSKAYAFEFLNNSSKGSIPTNEIQFSSYGEELRYLIKKLEGLGHKVYVTNLSNRECEENQLKAVKVTIPSLQPISFVHSAREGHHHHHH", "soluble on expression in E. coli": "not soluble"}, {"sequence": "AIAEALWTNKIEDPLSLMSFTVPPLRLLSAAMWQVTERRQVKHYGMLEEFVSLVTETIPELLNQHQRAQLILGLRARHLLELCRGKHQGSLKEIQPHLKRLCRPRVNKEFADEDMEESEACFLDLVRTLISNPKEKEHYFQNIFPEEYGPKFDKNLHALMEDFLLKLDRMVSVPDLSETVSWLRTCPSLLDDCIDSVSVPKDMKSLLEHHTAKGNLQDSEGNNCTFSSQSLPPLVQVVISSDHTESGEPSDLNGQDNDDEQASKTSSDGWTIKKIKLKTETEEEDNDQNWPITEAKSTGTRDGYDDGCLGEEPNQTQS", "soluble on expression in E. coli": "soluble"}, {"sequence": "MTQRLKDKLAVITGGANGIGRAIAERFAVEGADIAIADLVPAPEAEAAIRNLGRRVLTVKCDVSQPGDVEAFGKQVISTFGRCDILVNNAGIYPLIPFDELTFEQWKKTFEINVDSGFLMAKAFVPGMKRNGWGRIINLTSTTYWLKIEAYTHYISTKAANIGFTRALASDLGKDGITVNAIAPSLVRTATTEASALSAMFDVLPNMLQAIPRLQVPLDLTGAAAFLASDDASFITGQTLAVDGGMVRH", "soluble on expression in E. coli": "soluble"}, {"sequence": "MGSDKIHHHHHHMLAVEMRRIYKVYPDGVVALKGVDFTVEEGEIHGLLGENGAGKSTLMRILYGEIKPTKGEVKVFGDKVEFNGPWDAIRKGIAMVYQHFTLIPTFTVLENLYLSMLTINPNITINEVRKLAKEKMKDIGFSVPLDDVVEDLPIGIQQRVEIIKALMANAKILILDEPTSVLTPLEVEELFKTLRKLKENGITVIFITHKLKEVKEITDRVTVLRRGEVVGVAKTKEVSERDLAKMMVQREIVMEIKKSPASPGNTVLRVEDLWVKDDRGLDAVKGVSFELKEGEILGIAGVQGNGQKELAEALAGIRRIEKGRIELLGRDVTELSADKRYKAGLAYVPDSRKVGLVLDMSVVENVILTNLPSVMRGRRISWEKANKIGKEIVERFDVLVSSLSTPIKHLSGGNQQKVMVGREIIREPKVVIVSEPTQGLDIGATEFIRKTLVSLRDQGKGILLISTDLDEILQLSDRIAVMYEGKIMAIGKVEEFTLEKLGLLMGGVNA", "soluble on expression in E. coli": "not soluble"}, {"sequence": "MGSDKIHHHHHHMNVFATLKTVFFGSKFLSSPVPIDGTPRRDLVSALNGLMPLCRTIPGVRLALDIREGQVVLALNWTPRTDGNAPTGSYHYIVSDEDGVREMADSQVLLTENGKDNLPGSMDDSRTHPTVSTEKTEKDSAHLKKDVQKKAGPTSPEDTGKKAKSHTLMQEVTAFLTSRYRFRFNVLTEETEVASVENNIPDTHLRYAKVDERWMNSLSLEAIETGIDCWDRDIQRFVRSRRISEYHPFTAYFEQLPEWDGTDRVSALARRVSDDPVWVNGFHRWMLGLSAQWMQLNPDNNRANSVAPLLVSSRQGLGKSTFCRLLMPDRLKSYYTESYDLSSPTSAEAKLAAYGLINLDEFDKLGASKMPLLKNLMQASALNIRKAYKHSASSLPRIASFIGTSNREDLLVDRTGSRRFLCVSLKHAIDCTTSVEHKQLYAQLKTELLSGERSWFNKEEEQTIQQHNALFYKHVPEEEVFRLCFRFATEEDNPQEVLSLSATQLFERMKAAHPSIMRGMTAYSLSRILPQLGERVHTTKGNVYRVVEC", "soluble on expression in E. coli": "not soluble"}, {"sequence": "MYTLSAGIWEKFFKKKDYYVVIVGLDNAGKTTFLEQTKSHFVKDYGVLNPSKITATVGLNTGNVELNNTCLHFWDLGGQESLRELWATYYDDANAMIFVVDATRSDLFPIVASQFKEVMANEIVQNIPVLVAVNKSEMEGAAAAAEVRMLLEDDNHRSDLAVLPVSALEGTNIERCVHWIVRSLASQPLYL", "soluble on expression in E. coli": "not soluble"}, {"sequence": "MNTIPLHTILKLMAHPERMAILIQLLDSERNIAELAKSLSLPATAVSNHLNRLRVEGLVDFTRYHRIIEYRLVSEEAAAILHTVRDLENKRVA", "soluble on expression in E. coli": "not soluble"}, {"sequence": "MLGPVLRLVVKAGKERKLRNFYPNLYRDEIAAPPEGVGVAEAVDAEGHFLAVGYYDPRSRVPFRAFRFDPGPLNRAFFQGRFARALRRRQGLGESHRLVHGEADGLPGLVVDRFGEVLVLQVRSRGMEALREVWLPALLEVVAPKGVYERSDVEARRQEGLPERVGVVYGEVPEVLEVEEDGLRFPIPLALAQKTGYYLDQRENRRLFEAMVRPGERVLDVYSYVGGFALRAARKGAYALAVDKDLEALGVLDQAALRLGLRVDIRHGEALPTLRGLEGPFHHVLLDPPTLVKRPEELPAMKRHLVDLVREALRLLAEEGFLWLSSCSYHLRLEDLLEVARRAAADLGRRLRVHRVTYQPEDHPWSLHIPESLYLKTLVLQDDPL", "soluble on expression in E. coli": "soluble"}, {"sequence": "SAPAPPSGWSQVFLDDFDGAAGSSVNTANWQFDTGTSYPGGAGNWGTGEVESMTSSTSNVSLDGNGDLLITPRRDASGNWTSGRIETTRTDFQPPAGGKLRVEARLQMPNVTGDAAAGYWPAFWMLGAPFRGNYQNWPGVGELDIMENVQGLNKTWATMHCGTSPGGPCNETSGIGNSTACPNTTCQSGFHTYTMEWDRSVSPEAIRFSVDGVTYQTVTANQMDAATWTNATNHGFFVILNVAMGGGFPGAFGGGPTGATEPGHPMVVDYVQVTSLSPGL", "soluble on expression in E. coli": "soluble"}, {"sequence": "MAEPAQETPCFSMEKAERAFLDGNFEEALKHFFVCIRMLPVERRGVYEDQFAAALHGWIALDHNNASRAVCLYPQIKELFPETIRTKIALIRAVQGTEQSKWLLNCLPICKDSMDLATKPEDLVALRIARVNLTTIPFPQWHIRMINDVKRNEAFAKALNDTIKSRITVVFDIGSGTGILSAIAARKTNLVTALEENMCLTMISKEVLKRNGVESRVNVHAKNSTYFETCEKADIVVSETLDCCVFGEKIVETFLDAHVRFSHDRTIFIPHQATVYVRLFSCREIFDIHCQDYGGVRYRSEYVKIGESDAEQPYWCASAADYSQFELLSGSVAMHSVDFSSIANLKDSLANSNSFKIRPAKDGVAHGFSVHFTSDLTGHGDNIIDSSKSRAWDLGIIPFKEPCLVKCDKEYEGSWKLLNNRLDVYNDFYDENLQKHEDSLRYETASLDQLQKIRDDSYFKAMMGEIDPIELPFTRDISSSIPAQCVLNTVESQTPIRHLITNFCRYDGTLDQETFFRIEEFVGFRDHVQKIVPTKFRILGHLFYSDRVHFDARPDPSAHCQVDLSTVRSFNLREMRDIRLTQREDIVMASKEFVLYDFNISAEKFRQDTYITVTQDVTVQPTRPIADGVIYEFEILGIRNTKLRPVAAFLFPERVNTNPDMTVVFDLHLGEMLISLKDLP", "soluble on expression in E. coli": "not soluble"}, {"sequence": "MGSDKIHHHHHHMRIAYLSSAYLAPVEYYTKLLEYDKIYVEQHDHYIKQTYRNRCTIAGPDGELALSIPTVKPDTLKCPMKDIRISDHGNWRHLHWNAIESAYNSTPYFEYYKDDFRPFYEKKYEFLADFNEELCQLVCKLIDIQPCIERTSEYKTEFTTEETDFREIIHPKKDFQIADPEFVPHPYYQVFDSKLGFLPNLSIIDLLFNMGPESLLVLTSK", "soluble on expression in E. coli": "not soluble"}, {"sequence": "STFRERLLHKNLQEHFSNQDLVFLLLTPSIITESCSTHRLEHSLYKPQKGLFHRVPLVVANLGMSEQLGYKTVSGSCMSTGFSRAVQTHSSKFFEEDGSLKEVHKINEMYASLQEELKSICKKVEDSEQAVDKLVKDVNRLKREIEKRRGAQIQAAREKNIQKDPQENIFLCQALRTFFPNSEFLHSCVMSLKNRHVSKSSCNYNHHLDVVDNLTLMVEHTDIPEASPASTPQIIKHKALDLDDRWQFKRSRLLDTQDKRSKADTGSSNQDKASKMSSPETDEEIEKMKGFGEYSRSPTF", "soluble on expression in E. coli": "not soluble"}, {"sequence": "MSNQEPYRIPKRTASDPNQSGSQGSCVRPNQEGNVKKEESVNSAPRRMFTLPSSSSTSGAQVFNPIGKCQVQTNSFKIDITKMPKRLLRLSMETRLCGGKTELNLNDGVQAVAGNLNSQEDFTTQEWSQISNYLRKKNAEFKVKISPNGFVYTNGPNSLSDANRQELPRLVEIATSEVLNTPEYLQFGNQTYAVNEPAVSSPDALSEIRSGFDKSVRLVDGENGSTEIIMTIDNKLAPFHKSTSVLKMICDKFEEIVNPARQHRGSQDRRGDRDRGYRGGRSYGHDNRRRSRSRSPQDRGDRGDRGNHHRDHNEDWDERKVKEVERRLLEEPRALGSIADALKGLIVESVHLSKDVNRNSRIKLNEGKNDEQEISVADYYLKQYNYKLKFPYLPMIVSKRFRSETMFPVELLKIVPGQKISIQKINPNVQSAMTGPNSILPSKHVRIVARILESSLKIASNPYLKTFGIRISKDPIKLEAKILSPAQLSFNKYSIMPKPGSVQFEPSREDKFFKPAKIYEVAVIAFRVVSINLSDFCMKLCDLCRRSGLEIRRETRDWIKIENFNPTSTIELKEQMKRLQQSNCSIIIGITEEKKPEVHDVLKYFEAAVGLQTMQIHSKTAGFIISGNGQTAGNVIKKLNLKCGGINYIVEVPQSFNRTVVCSNNSFVQKKLFDGTQFIGFEMTHGAARTLFDKSNGTFDGEPTIVGCAYSLQKATDLGGFNWFQEQNEYRLKNLGTHIPKCLQYYKESSGSLPEKIVIYRTGAGEGDFDRVQQEITEIRSSFAEVQEGYKPSLVVIVANKTSHLRVFPVEIREGDTAMKQNVRSGTCLDGKITSAGREEFVLISQTALISTAKPTKYTIAANDPKWSKNEVMNLTYILSFAHQVCYQPPAVPHILYAADNLAKRGRNNFIQHKKLGELSKTIQATLTKYSDLNIEMDSKELSGELVEDITKSMNVMAIKARNFWA", "soluble on expression in E. coli": "not soluble"}, {"sequence": "MGSDKIHHHHHHMYQQVIDFIEHQKKIGALHPGDKLPSLRKLSRQFDISVPTVKQAYIELERQGQVCAKPQSGYYLQAMQARTLKPRPAKWAQCDPVEVQGRSMIEQVHAAVHLPNTVALGISNPIQAHPPDKALARLMRSVLSKVSEKAVSYGPVTGDAKLRMQLAFRYQDQGVETNPDDIVITNGAQEALSIALQCVAKRGDIIAIESPCFFGMIELIETLGMKALEVYTCTEDGVCVEDLAEAINQHDITACLFSTAINNPLGSMKTDEQRQAMVSLLEQHDIPLIEDEVYSEIYFTDNKPKPAQLYSEKGLVMTCSSFSKTAAPGYRIGWLLPGKFEEQAKRIKRAQSASTPMLQQWTLNEYLLSGDYDRHLCVLRKTLAYNCERMRALIAEHFPPEVCISKPLGGSVLWLRCQSHVKTGEFFQQALTQGVSFAPGAIFSPSGKYQNYMRVSYGVQWGEDVETAVKVLGQLVYEYTSKQKTAQLMEKQ", "soluble on expression in E. coli": "not soluble"}]}]}
